# Article PMC8999790, “The Transition of Photoreceptor Guanylate Cyclase Type 1 to the Active State” (International Journal of Molecular Sciences, 2022)
# B1: human GC-E + GCAP1 (Homo sapiens; V902L) (protein)
# chain: AVFTVGVLGPWACDPIFSRARPDLAARLAAARLNRDPGLAGGPRFEVALLPEPCRTPGSLGAVSSALARVSGLVGPVNPAACRPAELLAEEAGIALVPWGCPWTQAEGTTAPAVTPAADALYALLRAFGWARVALVTAPQDLWVEAGRSLSTALRARGLPVASVTSMEPLDLSGAREALRKVRDGPRVTAVIMVMHSVLLGGEEQRYLLEAAEELGLTDGSLVFLPFDTIHYALSPGPEALAALANSSQLRRAHDAVLTLTRHCPSEGSVLDSLRRAQERRELPSDLNLQQVSPLFGTIYDAVFLLARGVAEARAAAGGRWVSGAAVARHIRDAQVPGFCGDLGGDEEPPFVLLDTDAAGDRLFATYMLDPARGSFLSAGTRMHFPRGGSAPGPDPSCWFDPNNICGGGLEPGLVFLGFLLVVGMGLAGAFLAHYVRHRLLHMQMVSGPNKIILTVDDITFLHPHGGTSRKVAQGSRSSLGARSMSDIRSGPSQHLDSPNIGVYEGDRVWLKKFPGDQHIAIRPATKTAFSKLQELRHENVALYLGLFLARGAEGPAALWEGNLAVVSEHCTRGSLQDLLAQREIKLDWMFKSSLLLDLIKGIRYLHHRGVAHGRLKSRNCIVDGRFVLKITDHGHGRLLEAQKVLPEPPRAEDQLWTAPELLRDPALERRGTLAGDVFSLAIIMQEVVCRSAPYAMLELTPEEVVQRVRSPPPLCRPLVSMDQAPVECILLMKQCWAEQPELRPSMDHTFDLFKNINKGRKTNIIDSMLRMLEQYSSNLEDLIRERTEELELEKQKTDRLLTQMLPPSVAEALKTGTPVEPEYFEQVTLYFSDIVGFTTISAMSEPIEVLDLLNDLYTLFDAIIGSHDVYKVETIGDAYMVASGLPQRNGQRHAAEIANMSLDILSAVGTFRMRHMPEVPVRIRIGLHSGPCVAGVVGLTMPRYCLFGDTVNTASRMESTGLPYRIHVNLSTVGILRALDSGYQVELRGRTELKGKGAEDTFWLVGRRGFNKPIPKPPDLQPGSSNHGISLQEIPPERRRKLEKARPGQFS
# notes: full-length GC-E transiently expressed in HEK293, membrane suspension
# B2: human GC-E (no GCAPs) (Homo sapiens; V902L) (protein)
# chain: B1 chain
# notes: full-length GC-E transiently expressed in HEK293, membrane suspension; no GCAP added
# B3: human GC-E + GCAP2 (Homo sapiens; V902L) (protein)
# chain: B1 chain
# notes: as for B1
# Key:
# Format in all cases: biochemical, Homo sapiens
# [1] = substrate: Nc1nc2c(ncn2[C@@H]2O[C@H](COP(=O)(O)OP(=O)(O)OP(=O)(O)O)[C@@H](O)[C@H]2O)c(=O)[nH]1; test: cells, lysate or membranes; conditions: Mg-GTP, pH 7.2, 30 °C, half-maximal saturation
# [2] = substrate: Nc1nc2c(ncn2[C@@H]2O[C@H](COP(=O)(O)OP(=O)(O)OP(=O)(O)O)[C@@H](O)[C@H]2O)c(=O)[nH]1; test: cGMP formation by HPLC in HEK293 membranes, Hill fit; conditions: Mg-GTP, 5 uM GCAP1, <=10 nM free Ca2+ (2 mM EGTA), pH 7.2, 30 °C, half-maximal saturation, Hill h 1.75
# Source text: cGMP formation by HPLC in HEK293 membranes, Hill fit on human GC-E + GCAP1
# [3] = substrate: Nc1nc2c(ncn2[C@@H]2O[C@H](COP(=O)(O)OP(=O)(O)OP(=O)(O)O)[C@@H](O)[C@H]2O)c(=O)[nH]1; test: as above; conditions: Mg-GTP, no GCAPs, <=10 nM free Ca2+ (2 mM EGTA), pH 7.2, 30 °C, half-maximal saturation, Hill h 1.58
# Source text: cGMP formation by HPLC in HEK293 membranes, Hill fit on human GC-E (no GCAPs)
# [4] = substrate: Nc1nc2c(ncn2[C@@H]2O[C@H](COP(=O)(O)OP(=O)(O)OP(=O)(O)O)[C@@H](O)[C@H]2O)c(=O)[nH]1; test: as above; conditions: Mg-GTP, 5 uM GCAP2, <=10 nM free Ca2+ (2 mM EGTA), pH 7.2, 30 °C, half-maximal saturation, Hill h 1.76
# Source text: cGMP formation by HPLC in HEK293 membranes, Hill fit on human GC-E + GCAP2
# [5] = 5 uM GCAP1, <=10 nM free Ca2+ (2 mM EGTA), Hill h 1.75, apparent KM
# [6] = no GCAPs, <=10 nM free Ca2+ (2 mM EGTA), Hill h 1.58, apparent KM
# [7] = 5 uM GCAP2, <=10 nM free Ca2+ (2 mM EGTA), Hill h 1.76, apparent KM
protein,measurement,setting,value
B1,Km,[1]; [5],200 µM
same,kcat/Km,[1]; [5],4000 M⁻¹ s⁻¹
same,K0.5,[2],0.20 mM
same,kcat/Km,[2],4000 M⁻¹ s⁻¹
B2,K0.5,[3],0.37 mM
same,kcat/Km,[3],2100 M⁻¹ s⁻¹
same,Km,[1]; [6],340 µM
same,kcat/Km,[1]; [6],2100 M⁻¹ s⁻¹
B3,Km,[1]; [7],310 µM
same,kcat/Km,[1]; [7],2200 M⁻¹ s⁻¹
same,K0.5,[4],0.36 mM
same,kcat/Km,[4],2200 M⁻¹ s⁻¹
